Measurements published in paper PMC7321842 (Nature, 2020).

T1: CHMP7_(R270E+I312E) (human, UniProt Q8WUX9 1-453, R270E | I312E)
T1 sequence (looked up): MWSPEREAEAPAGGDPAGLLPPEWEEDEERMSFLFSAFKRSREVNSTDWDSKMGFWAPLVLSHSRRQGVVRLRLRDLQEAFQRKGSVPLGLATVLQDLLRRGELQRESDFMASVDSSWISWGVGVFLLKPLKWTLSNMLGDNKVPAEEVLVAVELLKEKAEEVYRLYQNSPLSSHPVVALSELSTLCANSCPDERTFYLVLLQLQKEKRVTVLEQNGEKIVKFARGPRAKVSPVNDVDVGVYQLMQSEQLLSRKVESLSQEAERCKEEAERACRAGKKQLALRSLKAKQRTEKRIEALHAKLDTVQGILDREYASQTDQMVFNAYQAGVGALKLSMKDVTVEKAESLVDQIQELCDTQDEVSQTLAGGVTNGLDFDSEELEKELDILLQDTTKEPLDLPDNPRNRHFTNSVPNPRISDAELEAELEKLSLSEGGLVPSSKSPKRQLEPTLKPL

T2: CHMP7_(R270E+V339D) (human, UniProt Q8WUX9 1-453, R270E | V339D)
T2 sequence (looked up): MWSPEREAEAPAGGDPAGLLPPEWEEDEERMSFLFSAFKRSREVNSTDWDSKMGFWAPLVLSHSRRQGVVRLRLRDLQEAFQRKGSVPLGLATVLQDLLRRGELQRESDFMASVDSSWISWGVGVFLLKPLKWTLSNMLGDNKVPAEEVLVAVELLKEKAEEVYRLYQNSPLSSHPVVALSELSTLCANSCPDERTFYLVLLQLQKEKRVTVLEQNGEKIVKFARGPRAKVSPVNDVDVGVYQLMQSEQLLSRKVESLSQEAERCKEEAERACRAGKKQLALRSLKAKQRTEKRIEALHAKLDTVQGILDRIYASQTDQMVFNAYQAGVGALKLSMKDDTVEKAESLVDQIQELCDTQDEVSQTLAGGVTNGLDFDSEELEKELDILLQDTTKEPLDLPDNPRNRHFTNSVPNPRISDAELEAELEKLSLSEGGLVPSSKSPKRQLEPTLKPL

T3: full-length, human CHMP7 (human, UniProt Q8WUX9 1-453)
T3 sequence (looked up): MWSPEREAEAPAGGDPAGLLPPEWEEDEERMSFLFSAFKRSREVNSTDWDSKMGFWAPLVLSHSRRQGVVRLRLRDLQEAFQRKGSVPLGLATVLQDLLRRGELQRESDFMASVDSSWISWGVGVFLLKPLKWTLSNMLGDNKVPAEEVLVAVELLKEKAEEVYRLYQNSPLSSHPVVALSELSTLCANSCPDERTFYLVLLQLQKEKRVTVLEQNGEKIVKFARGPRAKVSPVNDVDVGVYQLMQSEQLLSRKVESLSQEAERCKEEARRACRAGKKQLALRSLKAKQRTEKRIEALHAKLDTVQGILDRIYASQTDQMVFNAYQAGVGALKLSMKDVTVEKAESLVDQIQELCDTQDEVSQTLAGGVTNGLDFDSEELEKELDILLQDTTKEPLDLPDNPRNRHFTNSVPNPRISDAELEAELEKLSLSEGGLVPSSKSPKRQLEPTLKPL

T4: CHMP7_(I312E+V339D) (human, UniProt Q8WUX9 1-453, I312E | V339D)
T4 sequence (looked up): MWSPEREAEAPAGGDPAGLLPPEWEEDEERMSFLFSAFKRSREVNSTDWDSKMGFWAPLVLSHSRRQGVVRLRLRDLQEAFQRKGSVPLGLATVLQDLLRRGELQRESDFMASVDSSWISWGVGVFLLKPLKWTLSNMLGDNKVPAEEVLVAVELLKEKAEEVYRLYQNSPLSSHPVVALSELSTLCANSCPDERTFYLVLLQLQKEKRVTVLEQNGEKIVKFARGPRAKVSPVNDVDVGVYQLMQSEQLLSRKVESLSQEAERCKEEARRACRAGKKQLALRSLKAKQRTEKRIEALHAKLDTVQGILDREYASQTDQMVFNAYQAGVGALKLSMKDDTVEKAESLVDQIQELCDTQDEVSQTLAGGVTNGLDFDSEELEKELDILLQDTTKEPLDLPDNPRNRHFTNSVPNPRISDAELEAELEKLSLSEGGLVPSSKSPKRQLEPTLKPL


Columns and labels:
[1] = target: the molecule itself; experiment: negative stain electron microscopy of polymers
CHMP7_(R270E+I312E) = target: T1, CHMP7_(R270E+I312E); experiment: co-sedimentation
CHMP7_(R270E+V339D) = target: T2, CHMP7_(R270E+V339D); experiment: co-sedimentation
full-length, human CHMP7 = target: T3, full-length, human CHMP7; experiment: co-sedimentation
CHMP7_(I312E+V339D) = target: T4, CHMP7_(I312E+V339D); experiment: co-sedimentation

Binder | binding result [1] | binding result (CHMP7_(R270E+I312E)) | binding result (CHMP7_(R270E+V339D)) | stoichiometry N (full-length, human CHMP7) | binding result (CHMP7_(I312E+V339D))
CHMP7_(ESCRT-III) (AA:229–453) (domain or fragment, human, UniProt Q8WUX9 229-453, looked up) AKVSPVNDVDVGVYQLMQSEQLLSRKVESLSQEAERCKEEARRACRAGKKQLALRSLKAKQRTEKRIEALHAKLDTVQGILDRIYASQTDQMVFNAYQAGVGALKLSMKDVTVEKAESLVDQIQELCDTQDEVSQTLAGGVTNGLDFDSEELEKELDILLQDTTKEPLDLPDNPRNRHFTNSVPNPRISDAELEAELEKLSLSEGGLVPSSKSPKRQLEPTLKPL | binds | – | – | – | –
WH domain of LEM2 (LEM2WH; AA:395–503) (domain or fragment, human, UniProt Q8NC56 395-503, looked up) ILLKYRWRKLEEEEQAMYEMVKKIIDVVQDHYVDWEQDMERYPYVGILHVRDSLIPPQSRRRMKRVWDRAVEFLASNESRIQTESHRVAGEDMLVWRWTKPSSFSDSER | – | binds | binds | 1 | binds
